We go through one substance from publication PMC4526632.

This assay deals with T1, recombinant mouse N-cadherin-Fc chimera (N-cadherin extracellular domain-Fc fusion protein) (mouse) (UniProt P15116).
T1 sequence: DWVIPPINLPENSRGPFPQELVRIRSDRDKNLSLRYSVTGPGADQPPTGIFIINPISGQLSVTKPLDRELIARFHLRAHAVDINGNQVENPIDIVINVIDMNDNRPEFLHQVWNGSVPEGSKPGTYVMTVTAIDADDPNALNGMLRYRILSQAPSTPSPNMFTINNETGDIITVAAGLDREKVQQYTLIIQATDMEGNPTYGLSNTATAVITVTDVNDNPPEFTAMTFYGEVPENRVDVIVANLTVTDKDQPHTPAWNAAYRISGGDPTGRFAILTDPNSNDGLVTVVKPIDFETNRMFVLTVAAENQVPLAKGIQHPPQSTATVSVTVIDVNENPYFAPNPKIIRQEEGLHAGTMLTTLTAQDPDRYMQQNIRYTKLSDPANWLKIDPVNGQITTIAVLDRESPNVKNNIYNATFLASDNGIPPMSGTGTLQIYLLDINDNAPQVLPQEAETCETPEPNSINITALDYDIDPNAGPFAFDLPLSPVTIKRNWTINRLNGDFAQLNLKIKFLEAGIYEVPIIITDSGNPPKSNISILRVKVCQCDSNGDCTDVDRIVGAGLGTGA

Consider “cell surface N-cadherin of ESC/iPSC-derived neural progenitor cells (from UniProt P15116 160-906) (natural protein)”, for which the Nanog-GFP negative cells by flow cytometry after plating dissociated iPSC-derived neurospheres on N-cad-Fc for 48 h (30% of cells on gelatin expressed Nanog) was > 97%.
